# Results as given in patent US20230322927A1 (Regeneron, published 2023).
# Assays:
# human EGFR on cells [1] = target: T1, human EGFR on cells (human, UniProt P00533 25-1210); experiment: cell-based or functional assay
# human CD28 on cells = human CD28 on cells (human, UniProt P10747 19-220); experiment: cell-based or functional assay
# human EGFR on cells [2] = target: T1, human EGFR on cells; experiment: flow cytometry titration on A375 cells
# Method: (§1) After incubation, the cells were washed twice with cold PBS containing 1% filtered FBS and a Fluorophore-conjugated anti-human secondary antibody was added to the cells and incubated for an additional 30 minutes. Live/dead dye was added to Human and Cynomolgus T cells incubations. Wells containing no antibody or secondary only were used as a control.
# (§2) After incubation with EGFR expressing cells, cells were washed, re-suspended in 200 μL cold PBS containing 1% filtered FBS and analyzed by flow cytometry on a BD FACS Canto II.
# human EGFR on cells [3] = target: T1, human EGFR on cells; experiment: flow cytometry titration on PEO1 cells
# Method: as §1, §2
# human EGFR on cells [4] = target: T1, human EGFR on cells; experiment: flow cytometry titration on 22RV1 cells
# Method: as §1, §2
# human EGFR on cells [5] = target: T1, human EGFR on cells; experiment: flow cytometry titration on A375 cells (EGFR-expressing)
# Method: (§3) Flow cytometric analysis was utilized to determine binding of anti-EGFR X anti-CD28 bispecific antibodies to several cancer cell lines (A375, 22RV1, PEO1, CAPAN2, SWi1990, H292), Human and Cynomolgus T cells and Jurkat cells followed by detection with a labeled anti-human secondary IgG antibody. […] After incubation, the cells were washed twice with cold PBS containing 1% filtered FBS and a Fluorophore-conjugated anti-human secondary antibody was added to the cells and incubated for an additional 30 minutes. Live/dead dye was added to Human and Cynomolgus T cells incubations. Wells containing no antibody or secondary only were used as a control.
# human EGFR on cells [6] = target: T1, human EGFR on cells; experiment: flow cytometry titration on H292 cells (EGFR-expressing)
# Method: as §3
# human EGFR on cells [7] = target: T1, human EGFR on cells; experiment: flow cytometry titration on PEO1 cells (EGFR-expressing)
# Method: as §3
# human EGFR on cells [8] = target: T1, human EGFR on cells; experiment: flow cytometry titration on CASKI cells; CASKI cells
# human EGFR on cells [9] = target: T1, human EGFR on cells; experiment: flow cytometry titration on 22RV1 cells (EGFR-expressing)
# Method: as §3
# human EGFR on cells [10] = target: T1, human EGFR on cells; experiment: flow cytometry titration on CAPAN2 cells (EGFR-expressing)
# Method: as §3
# human EGFR on cells [11] = target: T1, human EGFR on cells; experiment: flow cytometry titration on SW1990 cells (EGFR-expressing)
# Method: as §3
# [12] = target: T2, hEGFR(ECD).CPGG.MMH6 (REGN355) (human, UniProt P00533 25-647); experiment: SPR (Biacore 4000) at 25 C; antibody captured on anti-human Fc, hEGFR.mmH injected
# T2 construct: Soluble extracellular domain with a myc-myc-hexahistidine tag; also called hEGFR.mmH; hEGFR.mmh
# Method: Association was monitored for 5 minutes, and the dissociation of hEGFR.mmH in HBS-EP running buffer was monitored for 10 minutes. All of the binding kinetics experiments were performed at 25° C. Kinetic association (kₐ) and dissociation (kd) rate constants were determined by fitting the real-time sensorgrams to a 1:1 binding model using Scrubber 2.0c curve fitting software.
# hCD28.mFc (REGN2012) = target: T3, hCD28.mFc (REGN2012) (human, UniProt P10747 19-152, limits assumed); experiment: SPR (Biacore T-200) at 25 C; hCD28.mFc captured on anti-mouse Fc, antibody injected
# T3 construct: also called Human CD28-mFc; hCD28 with a C-terminal mouse Fc tag; not shown: C-terminal mouse Fc tag
binder,measurement,setting,value
"REGN6323 (bispecific antibody, human IgG4 S228P, kappa, EGFR arm from mAb13006P2, CD28 arm from mAb14226; also called bsAb6323; EGFRxCD28) heavy 1: QVQLQESGPGLVKPSETLSLTCTVSDDSIISYYWSWIRQPPGKGLEWIGYIYYSGRTNYNPSLKSRVTISVDTSKNQVSLKLNSVIAADTAVYYCARVSEDSYYHYGMDVWGQGTTVTVSSASTKGPSVFPLAPCSRSTSESTAALGCLVKDYFPEPVTVSWNSGALTSGVHTFPAVLQSSGLYSLSSVVTVPSSSLGTKTYTCNVDHKPSNTKVDKRVESKYGPPCPPCPAPPVAGPSVFLFPPKPKDTLMISRTPEVTCVVVDVSQEDPEVQFNWYVDGVEVHNAKTKPREEQFNSTYRVVSVLTVLHQDWLNGKEYKCKVSNKGLPSSIEKTISKAKGQPREPQVYTLPPSQEEMTKNQVSLTCLVKGFYPSDIAVEWESNGQPENNYKTTPPVLDSDGSFFLYSRLTVDKSRWQEGNVFSCSVMHEALHNHYTQKSLSLSLGK heavy 2: QVQLQESGPGLVKPSETLSLTCTVSGGSISSYYWSWIRQPPGKGLEWIGYIYYSGITHYNPSLKSRVTISVDTSKIQFSLKLSSVTAADTAVYYCARWGVRRDYYYYGMDVWGQGTTVTVSSASTKGPSVFPLAPCSRSTSESTAALGCLVKDYFPEPVTVSWNSGALTSGVHTFPAVLQSSGLYSLSSVVTVPSSSLGTKTYTCNVDHKPSNTKVDKRVESKYGPPCPPCPAPPVAGPSVFLFPPKPKDTLMISRTPEVTCVVVDVSQEDPEVQFNWYVDGVEVHNAKTKPREEQFNSTYRVVSVLTVLHQDWLNGKEYKCKVSNKGLPSSIEKTISKAKGQPREPQVYTLPPSQEEMTKNQVSLTCLVKGFYPSDIAVEWESNGQPENNYKTTPPVLDSDGSFFLYSRLTVDKSRWQEGNVFSCSVMHEALHNRFTQKSLSLSPGK light: not shown",Inhibition [%] of BaF3/hEGFR proliferation in presence of 0.5 nM hEGF,human EGFR on cells [1],28.5%
same,Inhibition [%] of BaF3/hEGFR proliferation in presence of 0.5 nM hTGFβ,human EGFR on cells [1],-7.3%
same,"IL-2 Release MAX (pg/mL), human CD3+ T cells + NCI-H292 cells, with 20 nM IsoC-1",human CD28 on cells,13.2 pg/mL
same,"IL-2 Release MAX (pg/mL), human CD3+ T cells + NCI-H292 cells, with 20 nM cemiplimab",human CD28 on cells,36.7 pg/mL
same,"Proliferation EC50 [M], human CD3+ T cells + NCI-H292 cells, with 20 nM IsoC-1",human CD28 on cells,2.29e-11 M
same,"Proliferation EC50 [M], human CD3+ T cells + NCI-H292 cells, with 20 nM cemiplimab",human CD28 on cells,3.13e-11 M
same,"Proliferation MAX (CPM), human CD3+ T cells + NCI-H292 cells, with 20 nM IsoC-1",human CD28 on cells,1660 CPM
same,"Proliferation MAX (CPM), human CD3+ T cells + NCI-H292 cells, with 20 nM cemiplimab",human CD28 on cells,2340 CPM
same,EC50,human EGFR on cells [2],0.874 nM
same,EC50,human EGFR on cells [3],5.86 nM
same,EC50,human EGFR on cells [4],11.9 nM
same,EC50,human EGFR on cells [5],1.48 nM
same,EC50,human EGFR on cells [6],0.674 nM
same,EC50,human EGFR on cells [7],0.667 nM
same,EC50,human EGFR on cells [8],2.35 nM
same,EC50,human EGFR on cells [9],0.554 nM
same,EC50,human EGFR on cells [10],1.29 nM
same,EC50,human EGFR on cells [11],2.96 nM
same,Kd,[12],3.75 nM
same,koff,[12],0.000774 s⁻¹
same,kon,[12],206000 M⁻¹ s⁻¹
same,t½,[12],14.9 min
same,Kd,hCD28.mFc (REGN2012),10 nM
same,koff,hCD28.mFc (REGN2012),0.00265 s⁻¹
same,kon,hCD28.mFc (REGN2012),265000 M⁻¹ s⁻¹
same,t½,hCD28.mFc (REGN2012),4.4 min
